The numbers were not newly measured in publication PMC7689341, which cites them from elsewhere.

Among the targets are IFNAR1 (Homo sapiens) (UniProt P17181); IFNAR2 (Mus musculus) (UniProt O35664); IFNAR1 (Mus musculus) (UniProt P33896); IFNλR1 (Homo sapiens) (UniProt Q8IU57).
The target of data set [1] is IFNAR2 (Homo sapiens) (UniProt P48551).
Data set [2] has the same target. This is another data set of the same source.
In data set [3] the target is IFNλ3/IFNλR1 complex (Homo sapiens) (UniProt Q8IZI9).
Sequence of IFNλ3/IFNλR1 complex (Homo sapiens) (Q8IZI9 22-196, chain 1 of 2): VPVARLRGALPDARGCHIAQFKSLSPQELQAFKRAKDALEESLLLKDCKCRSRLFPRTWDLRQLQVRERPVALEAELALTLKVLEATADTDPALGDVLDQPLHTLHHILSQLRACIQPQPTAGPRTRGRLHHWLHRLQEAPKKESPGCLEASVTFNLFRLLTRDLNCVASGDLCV
Sequence of IFNλ3/IFNλR1 complex (Homo sapiens) (Q8IU57 21-228, chain 2 of 2, further chain): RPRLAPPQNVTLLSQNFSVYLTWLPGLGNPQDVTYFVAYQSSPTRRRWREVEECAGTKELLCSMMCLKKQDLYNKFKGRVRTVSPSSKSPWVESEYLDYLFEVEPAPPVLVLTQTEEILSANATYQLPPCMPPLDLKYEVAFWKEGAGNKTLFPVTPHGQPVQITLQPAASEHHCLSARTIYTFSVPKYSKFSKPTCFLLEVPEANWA

Like-named read-outs stand apart in the source and are kept apart here.

Sequence of IFNAR2 (Homo sapiens) (P48551 27-243): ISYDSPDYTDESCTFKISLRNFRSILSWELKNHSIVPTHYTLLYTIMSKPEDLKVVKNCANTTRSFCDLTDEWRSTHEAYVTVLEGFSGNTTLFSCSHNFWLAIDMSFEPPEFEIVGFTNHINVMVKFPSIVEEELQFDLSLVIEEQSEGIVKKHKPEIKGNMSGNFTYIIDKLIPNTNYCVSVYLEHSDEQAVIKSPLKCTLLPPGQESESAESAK
Sequence of IFNβ (from UniProt P01574) (P01574 22-187): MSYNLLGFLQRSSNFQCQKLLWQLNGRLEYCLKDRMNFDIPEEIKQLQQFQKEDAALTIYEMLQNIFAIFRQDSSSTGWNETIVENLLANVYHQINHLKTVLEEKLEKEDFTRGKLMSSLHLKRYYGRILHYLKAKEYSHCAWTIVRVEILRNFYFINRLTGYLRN
Sequence of IFNβ (from UniProt P01575) (P01575 22-182): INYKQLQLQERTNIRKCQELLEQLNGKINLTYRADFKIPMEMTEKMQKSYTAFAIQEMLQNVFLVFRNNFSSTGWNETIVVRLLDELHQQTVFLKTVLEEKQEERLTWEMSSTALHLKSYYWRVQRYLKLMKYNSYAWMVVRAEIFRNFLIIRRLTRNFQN
Sequence of IL-10R2 (Q08334 20-220): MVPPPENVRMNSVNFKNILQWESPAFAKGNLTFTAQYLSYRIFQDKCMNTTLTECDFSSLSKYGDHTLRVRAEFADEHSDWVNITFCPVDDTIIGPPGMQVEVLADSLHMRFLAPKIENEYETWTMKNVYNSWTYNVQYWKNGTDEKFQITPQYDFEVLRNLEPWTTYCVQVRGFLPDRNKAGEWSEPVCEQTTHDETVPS
Sequence of IFNλR1 (Homo sapiens) (Q8IU57 21-228): as the sequence (Q8IU57 21-228, chain 2 of 2, further chain) above
Sequence of IFNAR1 (Homo sapiens) (P17181 28-436): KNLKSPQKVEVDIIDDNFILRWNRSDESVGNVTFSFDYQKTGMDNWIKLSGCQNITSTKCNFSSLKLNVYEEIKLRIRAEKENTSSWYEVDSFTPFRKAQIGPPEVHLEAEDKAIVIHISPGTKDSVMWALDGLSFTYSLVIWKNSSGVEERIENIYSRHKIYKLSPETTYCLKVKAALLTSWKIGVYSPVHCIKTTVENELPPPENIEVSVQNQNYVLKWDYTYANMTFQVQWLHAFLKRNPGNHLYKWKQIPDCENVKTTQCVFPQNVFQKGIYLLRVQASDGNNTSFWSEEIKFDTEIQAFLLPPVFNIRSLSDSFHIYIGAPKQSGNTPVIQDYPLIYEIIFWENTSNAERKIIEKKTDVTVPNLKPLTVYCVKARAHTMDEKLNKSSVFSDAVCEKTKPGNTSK
Sequence of IFNAR1 (Mus musculus) (P33896 27-429): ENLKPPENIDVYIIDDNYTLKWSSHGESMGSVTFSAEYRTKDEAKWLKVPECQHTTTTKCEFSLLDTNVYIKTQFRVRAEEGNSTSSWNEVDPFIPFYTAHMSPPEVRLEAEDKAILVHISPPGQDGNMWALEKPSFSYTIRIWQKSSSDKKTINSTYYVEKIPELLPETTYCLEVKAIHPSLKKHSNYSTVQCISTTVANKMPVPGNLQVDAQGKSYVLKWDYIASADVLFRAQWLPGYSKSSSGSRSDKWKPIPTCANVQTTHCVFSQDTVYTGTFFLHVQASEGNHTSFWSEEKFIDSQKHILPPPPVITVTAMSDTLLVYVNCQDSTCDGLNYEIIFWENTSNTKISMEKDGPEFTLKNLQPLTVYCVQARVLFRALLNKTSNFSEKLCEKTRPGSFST
Sequence of IFNλ3 (Q8IZI9 22-196): as the sequence (Q8IZI9 22-196, chain 1 of 2) above
Sequence of IFNAR2 (Mus musculus) (O35664 22-242): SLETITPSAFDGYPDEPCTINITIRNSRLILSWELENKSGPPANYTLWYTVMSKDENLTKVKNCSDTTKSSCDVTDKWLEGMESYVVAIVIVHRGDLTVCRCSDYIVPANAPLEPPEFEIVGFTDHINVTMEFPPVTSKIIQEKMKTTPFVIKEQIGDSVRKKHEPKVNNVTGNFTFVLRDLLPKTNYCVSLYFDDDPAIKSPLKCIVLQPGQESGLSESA

As to IFNα1 (from UniProt P0DY56), the Kd with IFNAR2 (Homo sapiens) [1] is 100 nM.
Take IFNβ (from UniProt P01574): the figures for the Kd in the data set with IFNAR2 (Homo sapiens) [2] and with IFNAR1 (Homo sapiens) were 0.1 nM and 30 nM, respectively.
For IFNβ (from UniProt P01575), the dissociation constant (Kd) with IFNAR2 (Mus musculus) was 1700 nM; in the data set with IFNAR1 (Mus musculus) it was 10 nM.
Consider IFNλ3 (from UniProt Q8IZI9), for which the dissociation constant (Kd) with IFNλR1 (Homo sapiens) is 850 nM.
Regarding IL-10R2 (from UniProt Q08334), the Kd in data set [3] is 15000 nM.

One may read the Kd as a measure of binding affinity in units of concentration.
